Experiments:
Assay in all cases: cross-linking
[1] = target: T1, PDI deletion mutant Δ222–302 (S. cerevisiae, UniProt P17967 29-522, Δ222–302, N-glycosylated (endoglycosidase H sensitive))
T1 sequence (looked up): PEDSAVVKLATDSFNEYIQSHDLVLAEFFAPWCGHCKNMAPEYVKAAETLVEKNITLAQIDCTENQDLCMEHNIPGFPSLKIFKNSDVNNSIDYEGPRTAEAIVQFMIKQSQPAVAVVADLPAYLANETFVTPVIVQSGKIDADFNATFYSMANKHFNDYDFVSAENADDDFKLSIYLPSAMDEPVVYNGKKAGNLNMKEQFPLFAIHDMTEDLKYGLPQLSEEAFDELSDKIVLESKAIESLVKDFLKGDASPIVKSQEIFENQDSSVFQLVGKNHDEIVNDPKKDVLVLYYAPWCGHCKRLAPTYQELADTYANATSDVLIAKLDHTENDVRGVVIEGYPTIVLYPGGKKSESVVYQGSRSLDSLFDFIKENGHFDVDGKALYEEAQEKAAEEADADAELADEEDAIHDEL

[2] = target: T2, PDI deletion mutant Δ252–277 (S. cerevisiae, UniProt P17967 29-522, Δ252–277, N-glycosylated (endoglycosidase H sensitive))
T2 sequence (looked up): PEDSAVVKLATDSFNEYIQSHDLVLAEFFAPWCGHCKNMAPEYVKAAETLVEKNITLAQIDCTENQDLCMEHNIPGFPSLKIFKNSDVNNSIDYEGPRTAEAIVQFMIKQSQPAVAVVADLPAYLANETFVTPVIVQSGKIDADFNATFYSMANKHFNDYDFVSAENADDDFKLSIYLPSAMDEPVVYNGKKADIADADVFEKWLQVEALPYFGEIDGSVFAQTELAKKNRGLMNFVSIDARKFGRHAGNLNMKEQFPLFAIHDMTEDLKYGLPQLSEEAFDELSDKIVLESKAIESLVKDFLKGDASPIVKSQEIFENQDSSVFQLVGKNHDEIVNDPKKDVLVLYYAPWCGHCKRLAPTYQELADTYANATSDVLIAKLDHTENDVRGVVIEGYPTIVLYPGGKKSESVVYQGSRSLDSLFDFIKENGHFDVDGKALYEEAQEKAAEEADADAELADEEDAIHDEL

[3] = target: T1, PDI deletion mutant Δ222–302; remark: listed apart in the source
[4] = target: T2, PDI deletion mutant Δ252–277; remark: listed apart in the source

B1: BiP, heavy chain binding protein (natural protein)
chain: not shown
B1 was tested, and the “fold decrease of BiP coimmunoprecipitated with Δgpαf present against absent” value [1] was 4.7 fold, the “fold reduction of BiP coimmunoprecipitated with Δgpαf present against absent” value [2] was 1.3 fold and the “BiP immunoprecipitated relative to wild-type PDI” value [3] was 2.7 fold. For the same binder, the “fold reduction of affinity compared with wild-type PDI” value [4] was about 2.8 fold.

Source: PMC2174254 (The Journal of Cell Biology, 1999)
